Source: the supplement of paper PMC7125110
± gives the standard error. For part of these data: Fewer inactive variants are shown than the library holds.

B1: glmS ribozyme (parent)
chain: AUAAAAGCGCCAGAACUACAGAAAUGUAGUUGACGAGGAGGAGGUUUAUCGAAUUUUCGGCGGAUGCCUCCAAA

What was measured:
Conditions in all cases: with glucosamine-6-phosphate
glucosamine-6-phosphate [1] = variants of: B1; test: kcat; higher = faster cleavage; RNA array
In short: (§1)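 kcat and KM were obtained from weighted Michaelis–Menten fits across concentrations of kobs values. Those came from one- or two-exponential decay fits to per-tile medians normalised to baseline and to non-cleaving reference variants. The variants were barcoded ribozymes transcribed in situ by E. coli RNA polymerase on sequenced MiSeq chips and tracked through a hybridised Cy3 probe at 37 °C, with 40 μM to 10 mM glucosamine-6-phosphate in HEPES/KCl/Mg(OAc)2 buffer flowed in.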

glucosamine-6-phosphate [2] = variants of: B1; test: KM; higher = weaker cofactor use; RNA array
In short: as §1

glucosamine-6-phosphate [3] = variants of: B1; test: self-cleavage kobs at 40 uM GlcN6P; higher = faster cleavage; RNA array
In short: as §1

glucosamine-6-phosphate [4] = variants of: B1; test: self-cleavage kobs at 160 uM GlcN6P; higher = faster cleavage; RNA array
In short: as §1

glucosamine-6-phosphate [5] = variants of: B1; test: self-cleavage kobs at 640 uM GlcN6P; higher = faster cleavage; RNA array
In short: as §1

glucosamine-6-phosphate [6] = variants of: B1; test: self-cleavage kobs at 2500 uM GlcN6P; higher = faster cleavage; RNA array
In short: as §1

glucosamine-6-phosphate [7] = variants of: B1; test: self-cleavage kobs at 10000 uM GlcN6P; higher = faster cleavage; RNA array
In short: as §1

Row | Variant | kcat (glucosamine-6-phosphate [1]) [s⁻¹] | KM (glucosamine-6-phosphate [2]) [µM] | self-cleavage kobs at 40 uM GlcN6P (glucosamine-6-phosphate [3]) [s⁻¹] | self-cleavage kobs at 160 uM GlcN6P (glucosamine-6-phosphate [4]) [s⁻¹] | self-cleavage kobs at 640 uM GlcN6P (glucosamine-6-phosphate [5]) [s⁻¹] | self-cleavage kobs at 2500 uM GlcN6P (glucosamine-6-phosphate [6]) [s⁻¹] | self-cleavage kobs at 10000 uM GlcN6P (glucosamine-6-phosphate [7]) [s⁻¹]
1 | AUAAAAGCGCCAGAACUACAGAAAUGUAGUUGACGAGGAGGAGGUUUAUCGAAUUUUCGGCGGGGGCCUCCAAA | 0.00619 ± 0.0017 | 4490 ± 1700 | 5.76e-05 ± 1e-05 | 0.000262 ± 6e-05 | 0.000845 ± 0.00015 | 0.00174 ± 0.00029 | 0.00489 ± 0.00066
2 | AUAAAAGCGCCAGAACUACAGAAAUGUAGUUGACGAGGAGGAGGUUUAUCGAAUUUUCGGCGAAUGCCUGCAAA | 3.27e-05 ± 9.7e-06 | – | – | – | 4.94e-05 ± 1.3e-05 | 3.19e-05 ± 9.4e-06 | –
3 | AUAAAAGCGCCAGAACUACAGAAAUGUAGUUGACGAGGAGGAGGUUUAUCGAAUUUUCGGCGGGUGCCUCGAAA | 0.000386 ± 8.2e-05 | – | – | 6.24e-05 ± 2e-05 | 0.000495 ± 0.00013 | 0.000271 ± 2.9e-05 | 0.000398 ± 5.8e-05
4 | AUAAAAGCGCCAGAACUACAGAAAUGUAGUUGACGAGGAGGAGGUUUAUCGAAUUUUCGGCGUAUGCCGCCAAA | 2.86e-05 ± 7.3e-06 | – | – | 3.51e-05 ± 1.5e-05 | 3.96e-05 ± 1.5e-05 | – | –
5 | AUAAAAGCGCCAGAACUACAGAAAUGUAGUUGACGAGGAGGAGGUUUAUCGAAUUUUCGGCGGUUUCCUCCAAA | < 1e-05 | – | < 1e-05 | – | – | – | –
6 | AUAAAAGCGCCAGAACUACAGAAAUGUAGUUGACGAGGAGGAGGUUUAUCGAAUUUUCGGCGGGUGCCACCAAA | 8.09e-05 ± 8.7e-06 | 1230 ± 510 | < 1e-05 | – | 3.36e-05 ± 1.6e-05 | 4.75e-05 ± 1.6e-05 | 7.42e-05 ± 1.3e-05
7 | AUAAAAGCGCCAGAACUACAGAAAUGUAGUUGACGAGGAGGAGGUUUAUCGAAUUUUCGGCGGGUGCAUCCAAA | < 1e-05 | – | – | – | – | – | –
8 | AUAAAAGCGCCAGAACUACAGAAAUGUAGUUGACGAGGAGGAGGUUUAUCGAAUUUUCGGCGGUUGCCUCCAAA | 0.00017 ± 6.8e-06 | 1860 ± 190 | – | 1.18e-05 ± 2.4e-06 | 4.12e-05 ± 1.3e-06 | 0.000102 ± 1.9e-06 | 0.000141 ± 2.2e-06
9 | AUAAAAGCGCCAGAACUACAGAAAUGUAGUUGACGAGGAGGAGGUUUAUCGAAUUUUCGGCGGGUGCCUCCAAA | 0.0475 ± 0.0029 | 2080 ± 150 | 0.000914 ± 1.8e-05 | 0.0031 ± 0.0002 | 0.0109 ± 0.0004 | 0.0249 ± 0.0011 | 0.0412 ± 0.0018
10 | AUAAAAGCGCCAGAACUACAGAAAUGUAGUUGACGAGGAGGAGGUUUAUCGAAUUUUCGGCGGCUGCCUCCAAA | 0.000188 ± 1.2e-05 | 1610 ± 260 | – | 1.42e-05 ± 3e-06 | 5.05e-05 ± 1.6e-06 | 0.000127 ± 3e-06 | 0.000157 ± 2.8e-06
11 | AUAAAAGCGCCAGAACUACAGAAAUGUAGUUGACGAGGAGGAGGUUUAUCGAAUUUUCGGCGGCUGCAUCCAAA | < 1e-05 | – | < 1e-05 | – | – | – | < 1e-05
12 | AUAAAAGCGCCAGAACUACAGAAAUGUAGUUGACGAGGAGGAGGUUUAUCGAAUUUUCGGCGCAUGGCUCCAAA | < 1e-05 | – | < 1e-05 | – | – | – | –
13 | AUAAAAGCGCCAGAACUACAGAAAUGUAGUUGACGAGGAGGAGGUUUAUCGAAUUUUCGGCGGUUGCCUGCAAA | 1.26e-05 ± 2.6e-06 | – | < 1e-05 | – | – | – | –
14 | AUAAAAGCGCCAGAACUACAGAAAUGUAGUUGACGAGGAGGAGGUUUAUCGAAUUUUCGGCGGUUGUCUCCAAA | 5.93e-05 ± 6.4e-06 | – | – | – | – | 5.62e-05 ± 8.7e-06 | 5.31e-05 ± 6.3e-06
15 | AUAAAAGCGCCAGAACUACAGAAAUGUAGUUGACGAGGAGGAGGUUUAUCGAAUUUUCGGCGGUUGACUCCAAA | 2.58e-05 ± 3.2e-06 | – | – | – | – | – | 2.41e-05 ± 6.5e-06
16 | AUAAAAGCGCCAGAACUACAGAAAUGUAGUUGACGAGGAGGAGGUUUAUCGAAUUUUCGGCGGGUGACUCCAAA | 0.00338 ± 0.00073 | 1730 ± 520 | 9.53e-05 ± 1.7e-05 | 0.000303 ± 4.4e-05 | 0.000794 ± 0.00012 | 0.0018 ± 0.00034 | 0.00346 ± 0.00059
17 | AUAAAAGCGCCAGAACUACAGAAAUGUAGUUGACGAGGAGGAGGUUUAUCGAAUUUUCGGCGUAUGCCUGCAAA | 2.12e-05 ± 4.8e-06 | – | – | – | 2.59e-05 ± 1.1e-05 | 2.19e-05 ± 1e-05 | –
18 | AUAAAAGCGCCAGAACUACAGAAAUGUAGUUGACGAGGAGGAGGUUUAUCGAAUUUUCGGCGUAUGACUCCAAA | < 1e-05 | – | – | < 1e-05 | – | – | < 1e-05
19 | AUAAAAGCGCCAGAACUACAGAAAUGUAGUUGACGAGGAGGAGGUUUAUCGAAUUUUCGGCGUAUGUCUCCAAA | < 1e-05 | – | < 1e-05 | – | < 1e-05 | – | –
20 | AUAAAAGCGCCAGAACUACAGAAAUGUAGUUGACGAGGAGGAGGUUUAUCGAAUUUUCGGCGCAUGCCACCAAA | 1.18e-05 ± 4.3e-06 | – | – | – | – | – | –
